Laboratory results as given in PMC10397247.

Tests used:
Assay in all cases: two-hybrid library CCNG1;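 also: natural log of median RNA to DNA barcode read ratio; higher means stronger binding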
4H2618-bN = target: T1, 4H2618-bN
T1 chain: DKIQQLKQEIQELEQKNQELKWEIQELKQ

4H2667-bN = target: T2, 4H2667-bN
T2 chain: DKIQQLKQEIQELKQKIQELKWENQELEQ

4H2729-bN = target: T3, 4H2729-bN
T3 chain: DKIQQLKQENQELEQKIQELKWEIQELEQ

4H3112-bN = target: T4, 4H3112-bN
T4 chain: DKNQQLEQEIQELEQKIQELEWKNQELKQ

4H3185-bN = target: T5, 4H3185-bN
T5 chain: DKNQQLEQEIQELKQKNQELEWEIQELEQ

4H331-bN = target: T6, 4H331-bN
T6 chain: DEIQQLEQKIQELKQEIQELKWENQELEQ

4H3354-bN = target: T7, 4H3354-bN
T7 chain: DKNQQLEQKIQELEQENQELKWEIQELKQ

4H338-bN = target: T8, 4H338-bN
T8 chain: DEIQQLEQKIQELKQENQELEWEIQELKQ

4H3427-bN = target: T9, 4H3427-bN
T9 chain: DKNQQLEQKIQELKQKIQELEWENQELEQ

4H3628-bA = target: T10, 4H3628-bA
T10 chain: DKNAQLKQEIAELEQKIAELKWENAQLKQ

4H3782-bN = target: T11, 4H3782-bN
T11 chain: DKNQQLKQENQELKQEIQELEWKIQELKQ

4H3855-bN = target: T12, 4H3855-bN
T12 chain: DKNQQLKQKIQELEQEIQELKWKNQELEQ

4H4001-bN = target: T13, 4H4001-bN
T13 chain: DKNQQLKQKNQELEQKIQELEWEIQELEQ

4H454-bN = target: T14, 4H454-bN
T14 chain: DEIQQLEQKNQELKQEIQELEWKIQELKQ

4H568-bN = target: T15, 4H568-bN
T15 chain: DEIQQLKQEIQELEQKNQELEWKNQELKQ

4H607-bN = target: T16, 4H607-bN
T16 chain: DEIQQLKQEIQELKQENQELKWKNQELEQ

4H687-bN = target: T17, 4H687-bN
T17 chain: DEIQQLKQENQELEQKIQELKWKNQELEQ

4H717-bN = target: T18, 4H717-bN
T18 chain: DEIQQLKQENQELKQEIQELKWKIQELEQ

4H72-bN = target: T19, 4H72-bN
T19 chain: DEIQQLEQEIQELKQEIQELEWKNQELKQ

4H754-bN = target: T20, 4H754-bN
T20 chain: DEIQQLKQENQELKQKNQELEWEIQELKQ

4H797-bN = target: T21, 4H797-bN
T21 chain: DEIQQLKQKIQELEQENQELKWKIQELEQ

4H883-bN = target: T22, 4H883-bN
T22 chain: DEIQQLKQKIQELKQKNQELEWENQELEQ

4H908-bN = target: T23, 4H908-bN
T23 chain: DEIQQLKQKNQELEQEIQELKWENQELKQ

4H918-bN = target: T24, 4H918-bN
T24 chain: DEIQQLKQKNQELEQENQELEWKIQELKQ

4H953-bN = target: T25, 4H953-bN
T25 chain: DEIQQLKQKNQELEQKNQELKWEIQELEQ

4H967-bN = target: T26, 4H967-bN
T26 chain: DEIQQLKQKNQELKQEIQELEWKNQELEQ

4H4073-bA = target: T27, 4H4073-bA
T27 chain: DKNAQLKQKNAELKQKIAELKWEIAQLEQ

4H457-bA = target: T28, 4H457-bA
T28 chain: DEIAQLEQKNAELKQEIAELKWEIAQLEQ

4H575-bA = target: T29, 4H575-bA
T29 chain: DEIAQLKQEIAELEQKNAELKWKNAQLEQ

4H683-bA = target: T30, 4H683-bA
T30 chain: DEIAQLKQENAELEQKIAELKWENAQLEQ

4H754-bA = target: T31, 4H754-bA
T31 chain: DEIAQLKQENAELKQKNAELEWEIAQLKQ

4H780-bA = target: T32, 4H780-bA
T32 chain: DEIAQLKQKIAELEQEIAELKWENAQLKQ

4H797-bA = target: T33, 4H797-bA
T33 chain: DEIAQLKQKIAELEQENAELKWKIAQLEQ

4H855-bA = target: T34, 4H855-bA
T34 chain: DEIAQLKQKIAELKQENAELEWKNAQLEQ

4H918-bA = target: T35, 4H918-bA
T35 chain: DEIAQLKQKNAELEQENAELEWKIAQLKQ

4H949-bN = target: T36, 4H949-bN
T36 chain: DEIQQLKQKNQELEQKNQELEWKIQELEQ

4H953-bA = target: T37, 4H953-bA
T37 chain: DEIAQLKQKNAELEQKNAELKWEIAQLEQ

4H968-bA = target: T38, 4H968-bA
T38 chain: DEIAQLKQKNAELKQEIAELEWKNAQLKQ

P3mSN = target: T39, P3mSN
T39 chain: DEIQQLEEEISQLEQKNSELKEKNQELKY

DKIQQLKQEIQELEQKNQELKWEIQELKQ [4H2618-bN]
interaction score (4H2618-bN): 0.45
interaction score (4H2667-bN): -0.229
interaction score (4H2729-bN): 1.51
interaction score (4H3112-bN): -0.924
interaction score (4H3185-bN): 0.0545
interaction score (4H331-bN): -0.0801
interaction score (4H3354-bN): -0.374
interaction score (4H338-bN): 0.959
interaction score (4H3427-bN): 0.0822
interaction score (4H3628-bA): 0.00803
interaction score (4H3782-bN): -0.594
interaction score (4H3855-bN): -0.781
interaction score (4H4001-bN): -0.538
interaction score (4H454-bN): 0.067
interaction score (4H568-bN): -1.88
interaction score (4H607-bN): -0.0391
interaction score (4H687-bN): -0.758
interaction score (4H717-bN): -0.442
interaction score (4H72-bN): -0.128
interaction score (4H754-bN): -0.67
interaction score (4H797-bN): -0.249
interaction score (4H883-bN): 0.595
interaction score (4H908-bN): -1.09
interaction score (4H918-bN): 0.558
interaction score (4H953-bN): -1.12
interaction score (4H967-bN): -1.39

DKNAQLKQKNAELKQKIAELKWEIAQLEQ [4H4073-bA]
interaction score (4H4073-bA): -0.968
interaction score (4H457-bA): -1.06
interaction score (4H575-bA): -1.51
interaction score (4H683-bA): -0.684
interaction score (4H754-bA): -1.31
interaction score (4H780-bA): -1.4
interaction score (4H797-bA): -1.27
interaction score (4H855-bA): -1.17
interaction score (4H918-bA): -0.789
interaction score (4H949-bN): -1.71
interaction score (4H953-bA): -1.91
interaction score (4H968-bA): -1.01
interaction score (P3mSN): -4.32
